Sequences and labels used below:
T1: recombinant human HER4 ECD, biotinylated (human, UniProt Q15303 26-651, biotinylated (site not stated))
T1 construct: human epidermal growth factor receptor family member 4 (HER4, ErbB4), extracellular domain; Captured on streptavidin biosensors by its biotin; also called ErbB4; source: in-house purified recombinant
T1 sequence (looked up): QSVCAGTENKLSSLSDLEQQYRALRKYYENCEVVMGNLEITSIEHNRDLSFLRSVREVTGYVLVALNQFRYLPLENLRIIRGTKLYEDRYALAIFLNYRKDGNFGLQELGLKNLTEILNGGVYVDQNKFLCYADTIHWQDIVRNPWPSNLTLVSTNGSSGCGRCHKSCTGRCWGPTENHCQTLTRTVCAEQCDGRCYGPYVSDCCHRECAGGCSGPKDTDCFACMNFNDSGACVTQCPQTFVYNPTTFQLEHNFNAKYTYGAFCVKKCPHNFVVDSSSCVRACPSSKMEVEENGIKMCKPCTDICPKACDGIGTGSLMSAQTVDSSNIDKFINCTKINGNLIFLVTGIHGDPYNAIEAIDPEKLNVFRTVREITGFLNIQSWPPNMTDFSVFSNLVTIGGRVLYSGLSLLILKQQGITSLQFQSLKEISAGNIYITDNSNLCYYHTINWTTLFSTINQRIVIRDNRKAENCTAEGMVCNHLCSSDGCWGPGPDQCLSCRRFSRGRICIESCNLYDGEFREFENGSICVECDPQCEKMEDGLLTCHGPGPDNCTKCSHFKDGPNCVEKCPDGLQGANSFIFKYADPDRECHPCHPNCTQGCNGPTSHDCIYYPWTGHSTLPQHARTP

B1: ALM3 (antibody ligand mimetic 3) (antibody)
chain 1: not shown
chain 2: EIVLTQSPGTLSLSPGERATFSCRSSHSIRSRRVAWYQHKPGQAPRLVIHGVSNRASGISDRFSGSGSGTDFTLTITRVEPEDFALYYCQVYGASSYTFGQGTKLERKRTVAAPSVFIFPPSDEQLKSGTASVVCLLNNFYPREAKVQWKVDNALQSGNSQESVTEQDSKDSTYSLSSTLTLSKADYEKHKVYACEVTHQGLRSPVTKSFNRGEC
B2: ALM4 (antibody ligand mimetic 4) (antibody)
chain 1: not shown
chain 2: EIVLTQSPGTLSLSPGERATFSCRSSHSIRSRRVAWYQHKPGQAPRLVIHGVSNRASGISDRFSGSGSGTDFTLTITRVEPEDFALYYCQVYGASSYTFGQGTKLERKRTVAAPSVFIFPPSDEQLKSGTASVVCLLNNFYPREAKVQWKVDNALQSGNSQESVTEQDSKDSTYSLSSTLTLSKADYEKHKVYACEVTHQGLRSPVTKSFNRGEC
B3: NRG1-MFc fusion protein (NRG1 EGF domain fused with monomeric Fc) (Fc fusion, human)
chain: GTSHLVKCAEKEKTFCVNGGECFMVKDLSNPSRYLCKCPNEFTGDRCQNYVMASF
notes: neuregulin-1 beta (NRG1b) EGF domain, about 60 amino acids; numbers count on: the EGF domain (His2, Cys45); also called neuregulin-MFc; parental clone; source: HEK293FT, transient transfection, purified (protein A); not shown: monomeric Fc (MFc C4)
B4: NRG1 fused with human serum albumin (ligand, UniProt Q02297-6 177-236, looked up)
chain: SHLVKCAEKEKTFCVNGGECFMVKDLSNPSRYLCKCPNEFTGDRCQNYVMASFYKHLGIE
notes: neuregulin 1 (NRG1) fused with HSA, control protein; Control protein; also called NRG1-HSA

This experiment addresses T1, recombinant human HER4 ECD, biotinylated. In words: BLI; Octet 384; biotinylated HER4 or HER3 at 1 μg/mL captured on streptavidin biosensors; PBS pH 7.4, 3 mg/mL BSA, 0.05% Tween 20; serial dilutions of the variants; steady-state fit. The conditions noted are these: both partners purified.
With B1, the equilibrium dissociation constant (Kd) is more than 10000 nM.

On to B2, for which the Kd is 5600 nM. Take B3: the dissociation constant (Kd) was 640 nM.

B4: the Kd is 460 nM.

One may read the Kd as the constant that tells how readily two partners part at equilibrium.

The record behind these values is paper PMC7566517, “Long-acting antibody ligand mimetics for HER4-selective agonism” (Scientific Reports, 2020).
